Assay results reported in patent US20240216518A1 (HARPOON THERAPEUTICS, published 2024).
Blank lines part the entries; values can stand above or below the binder they belong to.

Experiments:
FLT3 TriTAC = biological target: T1, FLT3 TriTAC; test: biolayer interferometry
T1 construct: Single-chain trispecific; also called constitutively active FLT3 TriTAC

[1] = biological target: T2, stub:Active control; αCD19 T:A:C stub:Active; test: ELISA on recombinant human CD3ε
T2 construct: Single-chain trispecific; also called TriTAC-XR active drug; constitutively active CD19 TriTAC
T2 sequence (chain, as listed by the source): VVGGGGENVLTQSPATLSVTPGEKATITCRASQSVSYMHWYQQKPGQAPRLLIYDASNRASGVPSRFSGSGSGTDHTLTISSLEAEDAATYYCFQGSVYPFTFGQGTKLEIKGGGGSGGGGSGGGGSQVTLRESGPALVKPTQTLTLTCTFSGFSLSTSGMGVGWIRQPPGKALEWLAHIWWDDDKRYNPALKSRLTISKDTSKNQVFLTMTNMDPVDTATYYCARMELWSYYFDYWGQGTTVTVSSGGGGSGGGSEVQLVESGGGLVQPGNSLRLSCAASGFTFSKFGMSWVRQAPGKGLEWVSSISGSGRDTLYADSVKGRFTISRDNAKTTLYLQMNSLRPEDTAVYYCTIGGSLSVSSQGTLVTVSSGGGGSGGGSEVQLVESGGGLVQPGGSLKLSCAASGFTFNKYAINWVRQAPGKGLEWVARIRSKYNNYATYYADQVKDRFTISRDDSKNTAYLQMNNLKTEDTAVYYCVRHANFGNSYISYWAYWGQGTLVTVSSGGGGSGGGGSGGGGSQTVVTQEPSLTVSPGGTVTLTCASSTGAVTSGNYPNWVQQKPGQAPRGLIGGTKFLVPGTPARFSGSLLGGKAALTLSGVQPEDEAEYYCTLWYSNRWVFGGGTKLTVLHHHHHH

T1 sequence (chain, as listed by the source): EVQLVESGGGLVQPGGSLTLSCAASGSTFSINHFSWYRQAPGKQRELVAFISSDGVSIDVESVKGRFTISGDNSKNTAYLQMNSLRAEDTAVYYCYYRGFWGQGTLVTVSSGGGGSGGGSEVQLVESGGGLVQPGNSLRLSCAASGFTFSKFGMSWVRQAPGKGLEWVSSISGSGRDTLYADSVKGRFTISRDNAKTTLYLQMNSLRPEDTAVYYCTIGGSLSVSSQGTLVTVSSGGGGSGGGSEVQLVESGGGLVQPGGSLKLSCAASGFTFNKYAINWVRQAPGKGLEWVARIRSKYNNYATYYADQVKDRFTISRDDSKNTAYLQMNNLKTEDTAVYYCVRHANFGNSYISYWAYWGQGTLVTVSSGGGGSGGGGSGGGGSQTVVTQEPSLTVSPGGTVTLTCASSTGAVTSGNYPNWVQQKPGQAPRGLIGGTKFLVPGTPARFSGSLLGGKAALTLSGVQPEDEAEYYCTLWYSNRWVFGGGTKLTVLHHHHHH

Kd (FLT3 TriTAC): 3.3 nM
B1: cynomolgus CD3 (receptor)
chain: QDGNEEMGSITQTPYQVSISGTTVILTCSQHLGSEAQWQHNGKNKEDSGDRLFLPEFSEMEQSGYYVCYPRGSNPEDASHHLYLKARVCENCMEMD

Kd (FLT3 TriTAC): 4.4 nM
B2: cynomolgus albumin (other, UniProt A2V9Z4 25-608, looked up)
chain: DTHKSEVAHRFKDLGEEHFKGLVLVAFSQYLQQCPFEEHVKLVNEVTEFAKTCVADESAENCDKSLHTLFGDKLCTVATLRETYGEMADCCAKQEPERNECFLQHKDDNPNLPPLVRPEVDVMCTAFHDNEATFLKKYLYEVARRHPYFYAPELLFFAARYKAAFAECCQAADKAACLLPKLDELRDEGKASSAKQRLKCASLQKFGDRAFKAWAVARLSQKFPKAEFAEVSKLVTDLTKVHTECCHGDLLECADDRADLAKYMCENQDSISSKLKECCDKPLLEKSHCLAEVENDEMPADLPSLAADYVESKDVCKNYAEAKDVFLGMFLYEYARRHPDYSVMLLLRLAKAYEATLEKCCAAADPHECYAKVFDEFQPLVEEPQNLVKQNCELFEQLGEYKFQNALLVRYTKKVPQVSTPTLVEVSRNLGKVGAKCCKLPEAKRMPCAEDYLSVVLNRLCVLHEKTPVSEKVTKCCTESLVNRRPCFSALELDEAYVPKAFNAETFTFHADMCTLSEKEKQVKKQTALVELVKHKPKATKEQLKGVMDNFAAFVEKCCKADDKEACFAEEGPKFVAASQAALA
notes: also called cynomolgus serum albumin

Kd (FLT3 TriTAC): 2.7 nM
B3: cynomolgus FLT3 (receptor)
chain: NQDLPVIKCVLINHKNNDSSVGKSSSYPMVSESPEDLGCALRPQSAGTVYEAATVEVDVSASITLQVLVDTPGNISCLWVFKHSSLNCQPHFDVQNRGVVSMVILKMTETQAGEYLLFIQSEATNYTIVFTVSIRNTLLFTLRRPYFRKMENQDALVCISESVPEPIVEWVLCDSQGESCKEESPAVVKKEEKVLHELFGTDIRCCARNELGRECTRLFTIDLNQTPQTTLPQLFLKVGEPLWIRCKAVHVNHGFGLTWELENKALEEGSYFEMSTYSTNRTMIRILFAFVSSVARNDTGYYTCSSSKHPSQSALVTIVEKGFINATNSSEDYEIDQYEEFCFSVRFKAYPQIRCTWTFSRKAFPCEQKALDDGYSVSKFCNHKHQPGEYIFHAENGDAQFTKMFTLNIRRKPQVLAEASASQASCSSDGYPLPSWTWKKCSDKSPNCTEDIPEGVWNRKANRKVFGQWVSSSTLNMSEAMKGFLVKCCAYNSLGTSCETILLNSPGPFPFIQDS

binding result [1]: binds
B4: recombinant human CD3ε (receptor, UniProt P07766 23-126, looked up)
chain: DGNEEMGGITQTPYKVSISGTTVILTCPQYPGSEILWQHNDKNIGGDEDDKNIGSDEDHLSLKEFSELEQSGYYVCYPRGSKPEDANFYLYLRARVCENCMEMD
